The experiment addresses T1, glutathione S transferase (pGEX-4T-2 vector control lysate) (UniProt P08515 1-218 = GST).
T1 construct: In a bacterial lysate; also called GST; Control bacterial lysates encoding only glutathione S transferase
In words: Western or dot blot, bacterial lysate.

The text below walks through data of patent US20050063985A1 (MCW RESEARCH FOUNDATION, published 2005).

T1 sequence (P08515 whole entry): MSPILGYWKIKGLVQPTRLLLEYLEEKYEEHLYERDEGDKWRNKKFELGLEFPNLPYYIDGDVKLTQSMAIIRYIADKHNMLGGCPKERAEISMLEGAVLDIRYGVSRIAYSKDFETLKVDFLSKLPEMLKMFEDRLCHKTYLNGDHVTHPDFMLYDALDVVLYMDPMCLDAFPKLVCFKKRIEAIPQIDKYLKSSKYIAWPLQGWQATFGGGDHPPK

B1: monoclonal antibody mab 166 (antibody, V domains shown)
VH: QVQLKQSGPGLVQPSQSLSITCTVSGFSLTSYGVHWVRQSPGKGLEWLGVIWSGGDTDYNAAFISRLSISKDNSKSQLFFKMNSLRATDTAIYYCARNRGDIYYDFTYAMDYWGQGTSVTVSS
VL: DIQMTQSPASLSASVGETVTITCRASGNIQNYLAWYQQTQGKSPQLLVYSAKTLADGVPSRFSGSGSGTQYSLKINSLQPEDFGSYYCQHFWSTPYTFGGGTKLEIKR
notes: also called mabl66; m166
With B1, the binding result was “no binding”.
